Measurements published in patent US20210032291A1, “Compstatin Analogs With Improved Pharmacokinetic Properties” (The Trustees of the University of Pennsylvania, priority 2011, published 2021).
Blank lines part the entries; values can stand above or below the binder they belong to. Bridge positions count the residues as written; N and C are the ends. Square brackets hold non-standard residues; d marks the D form. Ends that are not written are not given here. Trp(1-Me) = Cn1cc(C[C@H](N)C(=O)O)c2ccccc21; NMeI = CC[C@H](C)[C@H](NC)C(=O)O; Orn = NCCC[C@H](N)C(=O)O; Sar = CNCC(=O)O

Tests used:
[1] = biological target: C3b (biotinylated, captured site-specifically on a streptavidin chip) (UniProt P01024); experiment: SPR, single-cycle kinetics on immobilised C3b (method of Example 2)
[2] = biological target: C3b (biotinylated, captured site-specifically on a streptavidin chip) (UniProt P01024); experiment: SPR (Biacore 3000), single-cycle kinetics, biotinylated C3b on streptavidin chip, peptide as analyte, 1:1 Langmuir fit
[3] = biological target: C3b (biotinylated, captured site-specifically on a streptavidin chip) (UniProt P01024); experiment: SPR on immobilised C3b

B1: Cp40 (6Asn) (peptide)
peptide: [dY]ICV[Trp(1-Me)]QNW[Sar]AHRC[NMeI]-NH2
modifications: disulfide 3-13; N-terminus assumed
SMILES: CC[C@H](C)[C@H](NC(=O)[C@H](N)Cc1ccc(O)cc1)C(=O)N[C@H]1CSSC[C@@H](C(=O)N(C)[C@H](C(N)=O)[C@@H](C)CC)NC(=O)[C@H](CCCNC(=N)N)NC(=O)[C@H](Cc2c[nH]cn2)NC(=O)[C@H](C)NC(=O)CN(C)C(=O)[C@H](Cc2c[nH]c3ccccc23)NC(=O)[C@H](CC(N)=O)NC(=O)[C@H](CCC(N)=O)NC(=O)[C@H](Cc2cn(C)c3ccccc23)NC(=O)[C@H](C(C)C)NC1=O
- Kd [1]: 3 nM
- koff [1]: 0.0028 s⁻¹
- kon [1]: 900000 M⁻¹ s⁻¹

B2: Peptide 5: Phe-Ile-[Cys-Val-Trp(Me)-Gln-Asp-Trp-Sar-Ala-His-Arg-Cys]-mIle-NH2 (peptide)
peptide: FICV[Trp(1-Me)]QDW[Sar]AHRC[NMeI]-NH2
modifications: disulfide 3-13; N-terminus assumed
SMILES: CC[C@H](C)[C@H](NC(=O)[C@@H](N)Cc1ccccc1)C(=O)N[C@H]1CSSC[C@@H](C(=O)N(C)[C@H](C(N)=O)[C@@H](C)CC)NC(=O)[C@H](CCCNC(=N)N)NC(=O)[C@H](Cc2c[nH]cn2)NC(=O)[C@H](C)NC(=O)CN(C)C(=O)[C@H](Cc2c[nH]c3ccccc23)NC(=O)[C@H](CC(=O)O)NC(=O)[C@H](CCC(N)=O)NC(=O)[C@H](Cc2cn(C)c3ccccc23)NC(=O)[C@H](C(C)C)NC1=O
- Kd [2]: 1.6 nM
- koff [2]: 0.0033 s⁻¹
- kon [2]: 2.1e+06 M⁻¹ s⁻¹

B3: Peptide 13: mAla-Ile-[Cys-Val-Trp(Me)-Gln-Asp-Trp-Sar-Ala-His-Arg-Cys]-mIle-NH2 (peptide)
peptide: AICVWQDWGAHRCI
modifications: mAla (N-methyl-Ala) at Xaa0; Trp(Me) at position 4; Sar at position 8; mIle at position 13; C-terminal -NH2; cyclic via Cys2-Cys12 disulfide (compstatin position numbering)
- Kd [2]: 2.5 nM
- koff [2]: 0.0034 s⁻¹
- kon [2]: 1.4e+06 M⁻¹ s⁻¹

B4: Cp40 (11Orn) (peptide)
peptide: [dY]ICV[Trp(1-Me)]QDW[Sar]AH[Orn]C[NMeI]-NH2
modifications: disulfide 3-13
- Kd [1]: 0.8 nM
- koff [1]: 0.002 s⁻¹
- kon [1]: 2.5e+06 M⁻¹ s⁻¹

B5: Peptide 8: Thr-Ile-[Cys-Val-Trp(Me)-Gln-Asp-Trp-Sar-Ala-His-Arg-Cys]-mIle-NH2 (peptide)
peptide: TICV[Trp(1-Me)]QDW[Sar]AHRC[NMeI]-NH2
modifications: disulfide 3-13; N-terminus assumed
SMILES: CC[C@H](C)[C@H](NC(=O)[C@@H](N)[C@@H](C)O)C(=O)N[C@H]1CSSC[C@@H](C(=O)N(C)[C@H](C(N)=O)[C@@H](C)CC)NC(=O)[C@H](CCCNC(=N)N)NC(=O)[C@H](Cc2c[nH]cn2)NC(=O)[C@H](C)NC(=O)CN(C)C(=O)[C@H](Cc2c[nH]c3ccccc23)NC(=O)[C@H](CC(=O)O)NC(=O)[C@H](CCC(N)=O)NC(=O)[C@H](Cc2cn(C)c3ccccc23)NC(=O)[C@H](C(C)C)NC1=O
- Kd [2]: 2.6 nM
- koff [2]: 0.0031 s⁻¹
- kon [2]: 1.2e+06 M⁻¹ s⁻¹

B6: Peptide 6: Arg-Ile-[Cys-Val-Trp(Me)-Gln-Asp-Trp-Sar-Ala-His-Arg-Cys]-mIle-NH2 (peptide)
peptide: RICV[Trp(1-Me)]QDW[Sar]AHRC[NMeI]-NH2
modifications: disulfide 3-13; N-terminus assumed
SMILES: CC[C@H](C)[C@H](NC(=O)[C@@H](N)CCCNC(=N)N)C(=O)N[C@H]1CSSC[C@@H](C(=O)N(C)[C@H](C(N)=O)[C@@H](C)CC)NC(=O)[C@H](CCCNC(=N)N)NC(=O)[C@H](Cc2c[nH]cn2)NC(=O)[C@H](C)NC(=O)CN(C)C(=O)[C@H](Cc2c[nH]c3ccccc23)NC(=O)[C@H](CC(=O)O)NC(=O)[C@H](CCC(N)=O)NC(=O)[C@H](Cc2cn(C)c3ccccc23)NC(=O)[C@H](C(C)C)NC1=O
- Kd [2]: 1.7 nM
- koff [2]: 0.0029 s⁻¹
- kon [2]: 1.7e+06 M⁻¹ s⁻¹

B7: Cp40 (11Orn 6Asn) (peptide)
peptide: [dY]ICV[Trp(1-Me)]QNW[Sar]AH[Orn]C[NMeI]-NH2
modifications: disulfide 3-13
- Kd [1]: 1.5 nM
- koff [1]: 0.0028 s⁻¹
- kon [1]: 2e+06 M⁻¹ s⁻¹

B8: Peptide 19: Ac-Trp-[Cys-Val-Trp(Me)-Gln-Asp-Trp-Sar-Ala-His-Arg-Cys]-mIle-NH2 (peptide)
peptide: Ac-WCV[Trp(1-Me)]QDW[Sar]AHRC[NMeI]-NH2
modifications: disulfide 2-12
SMILES: CC[C@H](C)[C@@H](C(N)=O)N(C)C(=O)[C@@H]1CSSC[C@H](NC(=O)[C@H](Cc2c[nH]c3ccccc23)NC(C)=O)C(=O)N[C@@H](C(C)C)C(=O)N[C@@H](Cc2cn(C)c3ccccc23)C(=O)N[C@@H](CCC(N)=O)C(=O)N[C@@H](CC(=O)O)C(=O)N[C@@H](Cc2c[nH]c3ccccc23)C(=O)N(C)CC(=O)N[C@@H](C)C(=O)N[C@@H](Cc2c[nH]cn2)C(=O)N[C@@H](CCCNC(=N)N)C(=O)N1
- Kd [2]: 0.5 nM
- koff [2]: 0.0017 s⁻¹
- kon [2]: 3.8e+06 M⁻¹ s⁻¹

B9: Peptide 12: mIle-Ile-[Cys-Val-Trp(Me)-Gln-Asp-Trp-Sar-Ala-His-Arg-Cys]-mIle-NH2 (peptide)
peptide: IICVWQDWGAHRCI
modifications: mIle (N-methyl-Ile; printed 'mlle') at Xaa0; Trp(Me) at position 4; Sar at position 8; mIle at position 13; C-terminal -NH2; cyclic via Cys2-Cys12 disulfide (compstatin position numbering)
- Kd [2]: 2.4 nM
- koff [2]: 0.0037 s⁻¹
- kon [2]: 1.6e+06 M⁻¹ s⁻¹

Next, values leading:

- Kd [2]: 1.6 nM
- koff [2]: 0.0029 s⁻¹
- kon [2]: 1.9e+06 M⁻¹ s⁻¹
B10: Compstatin 30 (Cp30): Sar-Ile-[Cys-Val-Trp(Me)-Gln-Asp-Trp-Sar-Ala-His-Arg-Cys]-mIle-NH2 (peptide)
peptide: GICVWQDWGAHRCI
modifications: Sar (N-methyl-Gly) at Xaa0 (N-terminus); Trp(Me) at position 4; Sar at position 8; mIle at position 13; C-terminal -NH2; cyclic via Cys2-Cys12 disulfide (compstatin position numbering)

- Kd [2]: 1.9 nM
- koff [2]: 0.0035 s⁻¹
- kon [2]: 1.8e+06 M⁻¹ s⁻¹
B11: Peptide 11: mVal-Ile-[Cys-Val-Trp(Me)-Gln-Asp-Trp-Sar-Ala-His-Arg-Cys]-mIle-NH2 (peptide)
peptide: VICVWQDWGAHRCI
modifications: mVal (N-methyl-Val) at Xaa0; Trp(Me) at position 4; Sar at position 8; mIle at position 13; C-terminal -NH2; cyclic via Cys2-Cys12 disulfide (compstatin position numbering)

- Kd [2]: 2.5 nM
- koff [2]: 0.0029 s⁻¹
- kon [2]: 1.2e+06 M⁻¹ s⁻¹
B12: Peptide 2: Gly-Ile-[Cys-Val-Trp(Me)-Gln-Asp-Trp-Sar-Ala-His-Arg-Cys]-mIle-NH2 (peptide)
peptide: GICV[Trp(1-Me)]QDW[Sar]AHRC[NMeI]-NH2
modifications: disulfide 3-13; N-terminus assumed
SMILES: CC[C@H](C)[C@H](NC(=O)CN)C(=O)N[C@H]1CSSC[C@@H](C(=O)N(C)[C@H](C(N)=O)[C@@H](C)CC)NC(=O)[C@H](CCCNC(=N)N)NC(=O)[C@H](Cc2c[nH]cn2)NC(=O)[C@H](C)NC(=O)CN(C)C(=O)[C@H](Cc2c[nH]c3ccccc23)NC(=O)[C@H](CC(=O)O)NC(=O)[C@H](CCC(N)=O)NC(=O)[C@H](Cc2cn(C)c3ccccc23)NC(=O)[C@H](C(C)C)NC1=O

- Kd [2]: 18.6 nM
- koff [2]: 0.0248 s⁻¹
- kon [2]: 1.3e+06 M⁻¹ s⁻¹
B13: Peptide 1: Me-Ile-[Cys-Val-Trp(Me)-Gln-Asp-Trp-Sar-Ala-His-Arg-Cys]-mIle-NH2 (peptide)
peptide: Me-ICVWQDW[Sar]AHRC[NMeI]-NH2
modifications: disulfide 2-12; not fully specified (residue 4); printed as Me-Ile-[Cys-Val-Trp(Me)-Gln-Asp-Trp-Sar-Ala-His-Arg-Cys]-mIle-NH2

- Kd [2]: 1.8 nM
- koff [2]: 0.0029 s⁻¹
- kon [2]: 1.6e+06 M⁻¹ s⁻¹
B14: Peptide 10: mPhe-Ile-[Cys-Val-Trp(Me)-Gln-Asp-Trp-Sar-Ala-His-Arg-Cys]-mIle-NH2 (peptide)
peptide: FICVWQDWGAHRCI
modifications: mPhe (N-methyl-Phe) at Xaa0; Trp(Me) at position 4; Sar at position 8; mIle at position 13; C-terminal -NH2; cyclic via Cys2-Cys12 disulfide (compstatin position numbering)

- Kd [2]: 2.2 nM
- koff [2]: 0.0036 s⁻¹
- kon [2]: 1.6e+06 M⁻¹ s⁻¹
B15: Peptide 7: Trp-Ile-[Cys-Val-Trp(Me)-Gln-Asp-Trp-Sar-Ala-His-Arg-Cys]-mIle-NH2 (peptide)
peptide: WICV[Trp(1-Me)]QDW[Sar]AHRC[NMeI]-NH2
modifications: disulfide 3-13; N-terminus assumed
SMILES: CC[C@H](C)[C@H](NC(=O)[C@@H](N)Cc1c[nH]c2ccccc12)C(=O)N[C@H]1CSSC[C@@H](C(=O)N(C)[C@H](C(N)=O)[C@@H](C)CC)NC(=O)[C@H](CCCNC(=N)N)NC(=O)[C@H](Cc2c[nH]cn2)NC(=O)[C@H](C)NC(=O)CN(C)C(=O)[C@H](Cc2c[nH]c3ccccc23)NC(=O)[C@H](CC(=O)O)NC(=O)[C@H](CCC(N)=O)NC(=O)[C@H](Cc2cn(C)c3ccccc23)NC(=O)[C@H](C(C)C)NC1=O

- fold weaker binding affinity than peptide 4 [3]: 3 fold
- Kd [2]: 3.5 nM
- koff [2]: 0.0073 s⁻¹
- kon [2]: 2.1e+06 M⁻¹ s⁻¹
B16: Peptide 20: Tyr-Gly-[Cys-Val-Trp(Me)-Gln-Asp-Trp-Sar-Ala-His-Arg-Cys]-mIle-NH2 (peptide)
peptide: YGCV[Trp(1-Me)]QDW[Sar]AHRC[NMeI]-NH2
modifications: disulfide 3-13; N-terminus assumed
SMILES: CC[C@H](C)[C@@H](C(N)=O)N(C)C(=O)[C@@H]1CSSC[C@H](NC(=O)CNC(=O)[C@@H](N)Cc2ccc(O)cc2)C(=O)N[C@@H](C(C)C)C(=O)N[C@@H](Cc2cn(C)c3ccccc23)C(=O)N[C@@H](CCC(N)=O)C(=O)N[C@@H](CC(=O)O)C(=O)N[C@@H](Cc2c[nH]c3ccccc23)C(=O)N(C)CC(=O)N[C@@H](C)C(=O)N[C@@H](Cc2c[nH]cn2)C(=O)N[C@@H](CCCNC(=N)N)C(=O)N1
